Source: the supplement of paper PMC7125110
± gives the standard error. For some of these results: Fewer inactive variants are shown than the library holds.

B1: glmS ribozyme (parent)
chain: AUAAAAGCGCCAGAACUACAGAAAUGUAGUUGACGAGGAGGAGGUUUAUCGAAUUUUCGGCGGAUGCCUCCAAA

What was measured:
Settings in all cases: with glucosamine-6-phosphate
glucosamine-6-phosphate [1] = variants of: B1; assay: kcat; higher = faster cleavage; RNA array
How it was run: (§1)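 Barcoded ribozyme variants on sequenced MiSeq chips were transcribed in situ by E. coli RNA polymerase and followed at 37 °C through a hybridised Cy3 probe. Glucosamine-6-phosphate at 40 μM to 10 mM in HEPES/KCl/Mg(OAc)2 buffer was flowed in, and tiles were imaged over ~14 h. Signals were normalised to baseline and to non-cleaving reference variants, and per-tile medians were fit to one- or two-exponential decays to give kobs. Weighted Michaelis–Menten fits across concentrations gave kcat and KM.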

glucosamine-6-phosphate [2] = variants of: B1; assay: KM; higher = weaker cofactor use; RNA array
How it was run: as §1

glucosamine-6-phosphate [3] = variants of: B1; assay: self-cleavage kobs at 640 uM GlcN6P; higher = faster cleavage; RNA array
How it was run: as §1

glucosamine-6-phosphate [4] = variants of: B1; assay: self-cleavage kobs at 2500 uM GlcN6P; higher = faster cleavage; RNA array
How it was run: as §1

glucosamine-6-phosphate [5] = variants of: B1; assay: self-cleavage kobs at 10000 uM GlcN6P; higher = faster cleavage; RNA array
How it was run: as §1

glucosamine-6-phosphate [6] = variants of: B1; assay: self-cleavage kobs at 40 uM GlcN6P; higher = faster cleavage; RNA array
How it was run: as §1

glucosamine-6-phosphate [7] = variants of: B1; assay: self-cleavage kobs at 160 uM GlcN6P; higher = faster cleavage; RNA array
How it was run: as §1

Variant | kcat (glucosamine-6-phosphate [1]) | KM (glucosamine-6-phosphate [2]) | self-cleavage kobs at 640 uM GlcN6P (glucosamine-6-phosphate [3]) | self-cleavage kobs at 2500 uM GlcN6P (glucosamine-6-phosphate [4]) | self-cleavage kobs at 10000 uM GlcN6P (glucosamine-6-phosphate [5]) | self-cleavage kobs at 40 uM GlcN6P (glucosamine-6-phosphate [6]) | self-cleavage kobs at 160 uM GlcN6P (glucosamine-6-phosphate [7])
A42G C58A | 0.00048 ± 3.7e-05 s⁻¹ | 2480 ± 390 µM | 9.53e-05 ± 3.4e-05 s⁻¹ | 0.000279 ± 0.00013 s⁻¹ | 0.000379 ± 9.4e-05 s⁻¹ | – | –
G43U C68U | 0.00467 ± 0.00089 s⁻¹ | 1190 ± 320 µM | 0.00188 ± 0.00022 s⁻¹ | 0.00344 ± 0.00047 s⁻¹ | 0.00404 ± 0.0004 s⁻¹ | 0.000181 ± 1.5e-05 s⁻¹ | 0.000436 ± 4.8e-05 s⁻¹
G43U C68G | 0.00617 ± 0.0012 s⁻¹ | 527 ± 180 µM | 0.00304 ± 0.00052 s⁻¹ | 0.00416 ± 0.0011 s⁻¹ | 0.00756 ± 0.0013 s⁻¹ | 0.000533 ± 9.6e-05 s⁻¹ | 0.00129 ± 0.00028 s⁻¹
A42U C71U | 0.000154 ± 2e-05 s⁻¹ | 1320 ± 400 µM | 4.75e-05 ± 6.4e-06 s⁻¹ | 0.000122 ± 1.6e-05 s⁻¹ | 0.000129 ± 1.4e-05 s⁻¹ | < 1e-05 s⁻¹ | –
G43A U54G | 0.000123 ± 6e-06 s⁻¹ | 2490 ± 310 µM | – | 6.39e-05 ± 1.5e-05 s⁻¹ | 9.76e-05 ± 1.9e-05 s⁻¹ | – | –
G44U U55A | 0.000317 ± 4.2e-05 s⁻¹ | 891 ± 390 µM | 0.000157 ± 4e-05 s⁻¹ | 0.000288 ± 4.6e-05 s⁻¹ | 0.000273 ± 3.2e-05 s⁻¹ | – | –
A42U A52G | 1.76e-05 ± 2.4e-06 s⁻¹ | – | – | – | 1.62e-05 ± 7.9e-06 s⁻¹ | – | < 1e-05 s⁻¹
G43A C67U | 0.000171 ± 1.4e-05 s⁻¹ | 1110 ± 320 µM | 6.14e-05 ± 9.1e-06 s⁻¹ | 0.000189 ± 4.2e-05 s⁻¹ | 0.000152 ± 9.9e-06 s⁻¹ | – | –
G40U C71G | 0.00552 ± 0.00087 s⁻¹ | 1200 ± 280 µM | 0.00193 ± 0.00025 s⁻¹ | 0.00351 ± 0.00048 s⁻¹ | 0.00519 ± 0.00058 s⁻¹ | 0.000211 ± 2.1e-05 s⁻¹ | 0.000498 ± 8.3e-05 s⁻¹
G40C A64G | 0.00107 ± 0.00027 s⁻¹ | – | – | 0.000837 ± 0.00017 s⁻¹ | 0.000811 ± 9.3e-05 s⁻¹ | – | 4.29e-05 ± 1.9e-05 s⁻¹
G41A U46G | 0.00092 ± 0.00015 s⁻¹ | 2030 ± 530 µM | 0.000206 ± 4.4e-05 s⁻¹ | 0.000537 ± 0.00011 s⁻¹ | 0.000747 ± 0.00018 s⁻¹ | – | 6.59e-05 ± 1.8e-05 s⁻¹
G41A U46A | 0.000569 ± 0.0001 s⁻¹ | 1480 ± 630 µM | 0.000168 ± 4.6e-05 s⁻¹ | 0.000531 ± 7.8e-05 s⁻¹ | 0.000462 ± 4.9e-05 s⁻¹ | 3.02e-05 ± 1.4e-05 s⁻¹ | 4.5e-05 ± 1.2e-05 s⁻¹
A42C U69G | 0.00638 ± 0.0012 s⁻¹ | 129 ± 51 µM | 0.00686 ± 0.0012 s⁻¹ | 0.00742 ± 0.0017 s⁻¹ | 0.00624 ± 0.00083 s⁻¹ | 0.00174 ± 0.00021 s⁻¹ | 0.00249 ± 0.00048 s⁻¹
